Test results published in patent publication US20180049457A1, “ENZYMATIC SYNTHESIS OF SOLUBLE GLUCAN FIBER” (E I DU PONT DE NEMOURS AND COMPANY, priority 2014, published 2018).

B1: GTF3808T5: T5 C-terminal truncation of GTF3808, SEQ ID NO: 124, strain SG1330 (protein)
chain: INGKQYYVNSDGSVRKNFVFEQDGKSYYFDAETGALATKSQDEFSTEPIKATVDFSSGNQLYKNDDKSLDQLDTFITADAWYRPKSILKDGKTWTASTEADKRPLLMVWWPDKSTQVNYLNYMQNQGLGAGSFSTNSSQESLDQAAKMVQTKIEERIAREGNTNWLRTSIDQFIKTQPGWNSSTENSSYDHLQGGQLLFNNSKGDTGNRTSHANSDYRLLNRTPTNQTGTRKYFKDNSIGGLEFLLANDIDNSNPAVQAEQLNWLHFMMNIGSIMANDPTANFDGLRVDALDNVDADLLQIASDYFKAAYGVDKSEANAIKHLSYLEAWSANDPYYNKDTKGAQLPIDNALRNALTNLLMRDKNTRMQLGDMTAFINSSLNPRGANDKNGERMANYIFTRAHDTEAQTIIQRIIRDRINPNLFGYNFTRDEIKKAFEIYNEDIDKAHKTYASYNLPSVYALMLTNKDSVTRVYYGDLYREDGHYMAKKTPYFDAIDTLLRARIKYVAGGQDMEVKKVGNDGLLTSVRYGKGANNRTDLGTSETRTQGMGVIMTNNYDFRLGSNETVTMNMGRAHRNQLYRPLLLTTKDGIATYLNDSDVPKNLLKRTDWNGNLTFNANDVFGVENVQVSGYLGVWVPYGAKANQDARTQPSNRANSDGQVYKSSAALDSQVMYEAFSNFQAFADDQPELYMNRVLAKNTDLLKAWGITSVGLPPQYVSSKDGTFLDSTIDNGYAFDDRYDMALSQNNKYGSLEDLLNVLRALHKDGIQAIADWVPDQIYNLPGKEVVNATRVNGYGNHQVGYQIIDQAYVANTRTDGTDYQGKYGGAFLDELKAKYPSIFNRVQISNGKQLPTNEKITKWSAKYFNGTNILGRGINYVLRDDKTNQYFNTSANSQLLPTPLRDTGAITSTQVFQRRGQDVYFLRDNQAVKNEFVQDGNGNWYYFGGDGKMTKGAQNINNKDYYFFDNGIQLRNALRRASNGYTYYYGLDGAMVKNAFVDFDDKHKQ
modifications: T5 C-terminal truncation of GTF3808
B2: GTF0459NTnativeT5: T5 C-terminal truncation of GTF0459, SEQ ID NO: 126, strain SG1297 (protein)
chain: INGKQYYVNSDGSVRKNFVFEQDGKSYYFDAETGALATKSQDEFSTEPIKAAVDFSSGNQLYKNDNKSLDQLDTFITADAWYRPKSILKDGKTWTASTEADKRPLLMVWWPDKSTQVNYLNYMQNQGLGAGSFSTNSSQESLNLAAKAVQTKIEERIAREGNTNWLRTSIDQFIKTQPGWNSSTENSSYDHLQGGQLLFNNSKGDTGNRTSYANSDYRLLNRTPTNQSGTRKYFKDNSIGGLEFLLANDIDNSNPAVQAEQLNWLHFMMNIGSIMANDPTANFDGLRVDALDNVDADLLQIASDYFKAVYGVDKSEANAIKHLSYLEAWSANDPYYNKDTKGAQLPIDNALRNALTNLLMRDKNTRMQLGDMTAFMNSSLNPRGANDKNGERMANYIFTRAHDTEAQTIIQRIIRDRINPNLFGYNFTRDEIKKAFEIYNADINTAHKTYASYNLPSVYALMLTNKDSVTRVYYGDLYREDGHYMAKKTPYFDAIDTLLRARIKYVAGGQDMEVKKVGNDGLLTSVRYGKGANNSTDWGTTETRTQGMGVILTNNYDFRLGSNETVTMNMGRAHRNQLYRPLLLTTKDGLATYLNDSDVPSNLLKRTDWNGNLTFNANDVFGVENVQVSGYLGVWVPVGAKANQDARTQPSNRANSDGQVYKSSAALDSQVMYEAFSNFQAFADDQPELYMNRVLAKNTDLLKAWGVTSVGLPPQYVSSKDGTFLDSTIDNGYAFDDRYDMALSQNNKYGSLEDLLNVLRALHKDGIQAIADWVPDQIYNLPGKEVVNATRVNGYGYHQQGYQIVDQAYVANTRTDGTDYQGRYGGAFLDELKAKYPSIFNRVQISNGKQLPTNEKITKWSAKYFNGTNILGRGINYVLRDDKTNQYFNTSANGQLLPTPLRDTGAITSTQVFQRRGQDVYFLRDNQVIKNEFVQDGNGNWYYFGADGKMTKGAQNINSKDYYFFDNGVQLRNALRRASNGYTYYYGLDGAMIKNAFVDFDDKHQ
modifications: T5 C-terminal truncation of GTF0459
B3: GTF4491NT: N terminal-only truncated GTF4491 from Streptococcus salivarius JIM8777, SEQ ID NO: 106, strain SG1292 (protein)
chain: INGKQYYVNSDGSVRKNFVFEQDGKSYYFDAETGALATKSQDEFSTEPIKATVDFSSGNQLYKNDDKSLDQLDTFITADAWYRPKSILKDGKTWTASTEADKRPLLMVWWPDKSTQVNYLNYMQNQGLGAGSFSTNSSQESLDQAAKAVQTKIEERIAREGNTNWLRTSIDQFIKTQPGWNSSTENSSYDHLQGGQLLFNNSKGDTGNRTSHANSDYRLLNRTPTNQTGTRKYFKDNSIGGLEFLLANDIDNSNPAVQAEQLNWLHFMMNIGSIMANDPTANFDGLRVDALDNVDADLLQIASDYFKAAYGVDKSEANAIKHLSYLEAWSANDPYYNKDTKGAQLPIDNALRNALTNLLMRDKNTRMQLGDMTAFINSSLNPRGANDKNGERMANYIFTRAHDTEAQTIIQRIIRDRINPNLFGYNFTRDEIKKAFEIYNEDIDKAHKTYASYNLPSVYALMLTNKDSVTRVYYGDLYREDGHYMAKKTPYFDAIDTLLRARIKYVAGGQDMEVKKVGNDGLLTSVRYGKGANNRTDLGTSETRTQGMGVIMTNNYDFRLGSNETVTMNMGRAHRNQLYRPLLLTTKDGIATYLNDSDVPKNLLKRTDWNGNLTFNANDVFGVENVQVSGYLGVWVPYGAKANQDARTQPSNRANSDGQVYKSSAALDSQVMYEAFSNFQAFADDQPELYMNRVLAKNTDLLKAWGITSVGLPPQYVSSKDGTFLDSIIDNGYAFDDRYDMALSQNNKYGSLEDLLNVLRALHKDGIQAIADWVPDQIYNLPGKEVVNATRVNGYGYHQQGYQIVDQAYVANTRTDGTDYQGKYGGAFLDELKAKYPSIFNRVQISNGKQLPTNEKITKWSAKYFNGTNILGRGINFVLRDDKTNQYFNTSANSQLLPTPLRDTGAITSTQVFQRRGQDVYFLRDNQTVKNEFVQDGNGNWYYFGGDGKMTKGAQNINSKDYYFFDNGVQLRNALRRASNGYTYYYGLDGAMVKNAFVDFDDKHKQVRAFTTQGTMVVGNLHWSGHHFYFDRETGIQAKDRVVRTDDGKLHYYVAETGDMGRNVFATDSSTGKRYYFDADGNTVTGSRVIDGKTYYFNQDGSVGTAYSNRADSIIFENGKARYITPAGEIGRSIFVYNPATKAWNYFDKEGNRVTGRQYIDGHLYYFKEDGSQAKGEIIEENGIKYYYEPESGILASGRYLQVGDDQWMYFKQDGSLAIGQVRADHGYLKYFDKNGIQVKGKTVVEDGKTYYYDAHSGALVTSSFAEIAPNQWSYFNTDGQALKGKWTINGKEYYFDENGIQYKGKAIKVGSRYKYYDENDGQPVTNRFAQIEPNVWAYFGADCYAVTGEQVINGQHLYFDENGRQVKGAYVTVNGQRRYYDANTGEYVPGR
modifications: Streptococcus salivarius JIM8777
B4: GTF3808NT: N terminal-only truncated GTF3808 from Streptococcus sp. SR4, SEQ ID NO: 108, strain SG1313 (protein)
chain: INGKQYYVNSDGSVRKNFVFEQDGKSYYFDAETGALATKSQDEFSTEPIKATVDFSSGNQLYKNDDKSLDQLDTFITADAWYRPKSILKDGKTWTASTEADKRPLLMVWWPDKSTQVNYLNYMQNQGLGAGSFSTNSSQESLDQAAKMVQTKIEERIAREGNTNWLRTSIDQFIKTQPGWNSSTENSSYDHLQGGQLLFNNSKGDTGNRTSHANSDYRLLNRTPTNQTGTRKYFKDNSIGGLEFLLANDIDNSNPAVQAEQLNWLHFMMNIGSIMANDPTANFDGLRVDALDNVDADLLQIASDYFKAAYGVDKSEANAIKHLSYLEAWSANDPYYNKDTKGAQLPIDNALRNALTNLLMRDKNTRMQLGDMTAFINSSLNPRGANDKNGERMANYIFTRAHDTEAQTIIQRIIRDRINPNLFGYNFTRDEIKKAFEIYNEDIDKAHKTYASYNLPSVYALMLTNKDSVTRVYYGDLYREDGHYMAKKTPYFDAIDTLLRARIKYVAGGQDMEVKKVGNDGLLTSVRYGKGANNRTDLGTSETRTQGMGVIMTNNYDFRLGSNETVTMNMGRAHRNQLYRPLLLTTKDGIATYLNDSDVPKNLLKRTDWNGNLTFNANDVFGVENVQVSGYLGVWVPYGAKANQDARTQPSNRANSDGQVYKSSAALDSQVMYEAFSNFQAFADDQPELYMNRVLAKNTDLLKAWGITSVGLPPQYVSSKDGTFLDSTIDNGYAFDDRYDMALSQNNKYGSLEDLLNVLRALHKDGIQAIADWVPDQIYNLPGKEVVNATRVNGYGNHQVGYQIIDQAYVANTRTDGTDYQGKYGGAFLDELKAKYPSIFNRVQISNGKQLPTNEKITKWSAKYFNGTNILGRGINYVLRDDKTNQYFNTSANSQLLPTPLRDTGAITSTQVFQRRGQDVYFLRDNQAVKNEFVQDGNGNWYYFGGDGKMTKGAQNINNKDYYFFDNGIQLRNALRRASNGYTYYYGLDGAMVKNAFVDFDDKHKQVRAFTTQGTMVVGNLHWSGHHFYFDRETGIQAKDRVVRTDDGKLHYYVAETGDMGRNVFATDSSTGKRYYFDADGNTVTGSRVIDGKTYYFNQDGSVGTAYSNRADSIIFENGKARYITPAGEIGRSIFVYNPATKAWNYFDKEGNRVTGRQYIDGHLYYFKEDGSQAKGEIIEENGIKYYYEPESGILASGRYLQVGDDQWMYFKQDGSLAIGQVRADHGYLKYFDKNGIQVKGKTVVEDGKTYYYDAHSGALVTSSFAEIAPNQWSYFNTDGQALKGKWTINGKEYYFDENGIQYKGKAIKVGSRYKYYDENDGQPVTNRFAQIEPNVWAYFGADGYAVTGEQVINGQHLYFDQSGRQVKGAYVTVNGQRRYYDANTGEYVPGR
modifications: Streptococcus sp. SR4

Assay: GTF activity of strains (PAHBAH assay)
Assay type: biochemical
Settings: enzyme expressed in B. subtilis host
Method in brief: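 Glucosyltransferase (GTF) activity of the bacterial strains was measured with the PAHBAH assay. The enzymes tested were truncated GTF variants produced in a Bacillus subtilis expression host. Measurements were split across three separate experiments, and each activity value is reported together with the experiment it came from because results varied slightly between experiments.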

| Molecule | GTF activity of strains: Acitivity (Experiment Number 3) [U/mL] | GTF activity of strains: Acitivity (Experiment Number 2) [U/mL] | GTF activity of strains: Acitivity (Experiment Number 1) [U/mL] |
| --- | --- | --- | --- |
| B1 | 36.2 |  |  |
| B2 |  | 52 |  |
| B3 |  | 53.1 | 42.3 |
| B4 | 34.9 |  |  |
